The values that follow come from article doi:10.1101/2020.12.04.20244186.

The target of the data set is c-KIT extracellular domain (soluble KIT) (UniProt P10721-2 26-516). The data set is described as follows: square wave voltammetry.

B1: Fc-labeled scrambled control oligo (Au/Fc-control) (ssDNA)
DNA: TGACGGGAGACTTAAAACGCAAGGGGTGCAGCTATCGCGGAGGCCAAGGGTTCAAGTCGACGGGTAGCTAGGTTGGA
modifications: 5'-disulfide (thiol after TCEP, on gold electrode); 3'-NH2 coupled to ferrocene carboxylic acid
As to B1, the binding result is on record as “no binding”.
